Measurements as given in patent US20200095340A1.

Columns and labels:
[1] = biological target: human DLL3 on DLL3 expressing cancer cell lines (human) (UniProt Q9NYJ7); experiment: cell-based or functional assay
[2] = biological target: human DLL3 on DMS-153 cells (human) (UniProt Q9NYJ7); experiment: cell-based or functional assay
[3] = biological target: biotinylated human DLL3 protein expressed as a human IgG1 fusion protein (human) (UniProt Q9NYJ7); experiment: Octet, several concentrations of trispecific (60, 20, 6.67, 2.22 nM), human DLL3
biotinylated human DLL3 protein expressed as a human IgG1 fusion protein (human), sequence (Q9NYJ7 27-492): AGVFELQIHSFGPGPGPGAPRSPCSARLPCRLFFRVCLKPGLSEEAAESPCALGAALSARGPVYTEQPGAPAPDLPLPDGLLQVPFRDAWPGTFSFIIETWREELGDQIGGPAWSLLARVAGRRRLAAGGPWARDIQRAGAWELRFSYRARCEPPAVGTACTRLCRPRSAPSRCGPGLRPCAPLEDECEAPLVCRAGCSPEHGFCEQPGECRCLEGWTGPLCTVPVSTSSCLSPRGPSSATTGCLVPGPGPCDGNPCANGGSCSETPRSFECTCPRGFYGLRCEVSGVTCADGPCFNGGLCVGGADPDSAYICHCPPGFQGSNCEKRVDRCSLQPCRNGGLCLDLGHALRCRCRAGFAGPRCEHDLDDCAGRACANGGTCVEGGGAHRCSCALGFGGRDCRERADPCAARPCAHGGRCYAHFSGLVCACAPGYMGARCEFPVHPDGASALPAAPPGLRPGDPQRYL

[4] = biological target: cynomolgus DLL3 protein (cynomolgus); experiment: Octet, single concentration of trispecific (60 nM), cynomolgus DLL3
cynomolgus DLL3 protein (cynomolgus), sequence (chain, as listed by the source): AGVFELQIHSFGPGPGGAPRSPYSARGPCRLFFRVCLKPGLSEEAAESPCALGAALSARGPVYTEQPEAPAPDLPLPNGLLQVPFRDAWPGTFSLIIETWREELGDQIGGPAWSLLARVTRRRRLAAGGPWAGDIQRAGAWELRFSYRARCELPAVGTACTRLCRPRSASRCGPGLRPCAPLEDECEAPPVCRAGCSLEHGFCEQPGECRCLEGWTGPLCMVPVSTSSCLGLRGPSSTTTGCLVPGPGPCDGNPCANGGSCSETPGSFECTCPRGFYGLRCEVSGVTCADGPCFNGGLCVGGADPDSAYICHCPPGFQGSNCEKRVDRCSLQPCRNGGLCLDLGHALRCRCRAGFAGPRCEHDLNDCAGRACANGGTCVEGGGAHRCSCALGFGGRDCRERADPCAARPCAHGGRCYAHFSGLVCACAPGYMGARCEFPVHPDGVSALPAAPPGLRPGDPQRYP

[5] = biological target: biotinylated version of human DLL3 protein expressed as a human IgG1 fusion protein (human) (UniProt Q9NYJ7); experiment: Octet BLI, biotinylated DLL3-IgG1 on streptavidin tips, single 50 nM
biotinylated version of human DLL3 protein expressed as a human IgG1 fusion protein (human), sequence (Q9NYJ7 27-492 limits assumed): as the sequence (Q9NYJ7 27-492) above

human DLL3 on DLL3 expressing cancer cell lines (human), sequence (Q9NYJ7 27-618 limits assumed): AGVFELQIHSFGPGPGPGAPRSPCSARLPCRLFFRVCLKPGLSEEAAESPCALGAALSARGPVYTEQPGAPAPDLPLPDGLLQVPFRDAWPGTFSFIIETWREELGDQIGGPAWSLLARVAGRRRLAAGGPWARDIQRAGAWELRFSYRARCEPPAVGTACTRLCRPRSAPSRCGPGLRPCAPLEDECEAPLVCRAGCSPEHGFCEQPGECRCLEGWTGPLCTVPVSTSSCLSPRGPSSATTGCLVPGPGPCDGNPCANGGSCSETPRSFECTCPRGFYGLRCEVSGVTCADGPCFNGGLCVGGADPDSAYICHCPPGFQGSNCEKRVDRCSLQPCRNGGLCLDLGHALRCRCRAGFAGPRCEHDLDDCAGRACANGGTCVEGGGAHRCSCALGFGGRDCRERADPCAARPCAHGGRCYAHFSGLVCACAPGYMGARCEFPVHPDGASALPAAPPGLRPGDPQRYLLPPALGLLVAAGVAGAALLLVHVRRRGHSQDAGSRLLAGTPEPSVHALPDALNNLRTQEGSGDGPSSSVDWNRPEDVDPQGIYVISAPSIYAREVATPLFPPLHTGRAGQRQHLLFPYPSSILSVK
human DLL3 on DMS-153 cells (human), sequence (Q9NYJ7 27-618 limits assumed): as above

Row | Binder | DMS-153 TDCC EC50 (conditioned medium, human T cells) [2] [nM] | TDCC EC50 (CHO expressed, purified protein; method of Example 2, DMS-153 cells) [2] [nM] | Kd [3] [nM] | Kd [4] [nM] | also measured
1 | anti-DLL3 trispecific protein containing 2E05-M106Q (protein, part only; not given: CD3 binder and albumin binder, part only) chain, part: EVQLVESGGGLVQPGGSLTLSCVASGSPSSINAYGWYRRAPGKQRELVAGISSDGSKVYSDSVKGRFTISRDNAKNSVYLQMNSLRAEDTAVYYCYYFRTVSGSSQSYWGQGTLVTVSSGGGGSGGGSGGGGSGGGSHHHHHH |  |  |  |  | TDCC EC50, DMS-153 cells, purified CHO protein [1]: 41 nM; fold more potent in TDCC than DH43 [1]: 6.6 fold
2 | anti-DLL3 trispecific protein containing 1H012 (protein, part only; not given: anti-CD3 fragment and anti-albumin sdAb, part only) chain, part: EVQLVESGGGLVQPGGSLTLSCVASGSTSSINAMGWYRRAPGKQRELVAGISSDGSKVYVDSVKGRFTISRDNAKNSVYLQMNSLRAEDTAVYYCYYFRTVSGSSMPYWGQGTLVTVSSGGGGSGGGSGGGGSGGGSHHHHHH |  |  |  |  | TDCC EC50, DMS-153 cells [1]: 28 nM; fold increase in TDCC potency over DH43 [1]: > 7 fold
3 | anti-DLL3 trispecific protein containing 4D09-M34L (protein, part only; not given: anti-CD3 fragment and anti-albumin sdAb, part only) chain, part: EVQLVESGGGLVQPGGSLTLSCAASGSSVKFLSLAWYRQAPGKKRELVAGISADGSTDYILSVKGRFTISRDNAKNSVYLQMNSLRAEDTAVYYCYAYEWTTRYTYWGQGTLVTVSSGGGGSGGGSGGGGSGGGSHHHHHH |  |  |  |  | TDCC EC50, DMS-153 cells, purified CHO protein [1]: 54 nM; fold more potent in TDCC than DH6 [1]: 4.4 fold
4 | anti-DLL3 trispecific protein containing 4A010 (protein, part only; not given: anti-CD3 and anti-albumin domains, part only) chain, part: EVQLVESGGGLVQPGGSLTLSCAASGSSVRFLSMAWYRQAPGKKRELVAGISADGSTVYIDSVKGRFTISRDNAKNSVYLQMNSLRAEDTAVYYCYAYRWTTRYKYWGQGTLVTVSSGGGGSGGGSGGGGSGGGSHHHHHH |  |  |  |  | Kd [5]: 2.3 nM
5 | anti-DLL3 trispecific protein containing 4H011 (protein, part only; not given: CD3 binder and albumin binder, part only) chain, part: EVQLVESGGGLVQPGGSLTLSCAASGSSVSRLSMAWYRQAPGKKRELVAGISVDGSTDYIDSVKGRFTISRDNAKNSVYLQMNSLRAEDTAVYYCYAYRWTTRLTYWGQGTLVTVSSGGGGSGGGSGGGGSGGGSHHHHHH |  |  |  |  | TDCC EC50, DMS-153 cells [1]: 36 nM; fold increase in TDCC potency over DH6 [1]: > 8 fold
6 | anti-DLL3 trispecific protein containing 4H05 (protein, part only; not given: CD3 binder and albumin binder, part only) chain, part: EVQLVESGGGLVQPGGSLTLSCAASGSSVSRLSMAWYRQAPGKKRELVAGISARGSTDYIDSVKGRFTISRDNAKNSVYLQMNSLRAEDTAVYYCYAYRWTTRSTYWGQGTLVTVSSGGGGSGGGSGGGGSGGGSHHHHHH |  |  |  |  | Kd [5]: 64 nM

Continued, in another order:

Row | DMS-153 TDCC EC50 (conditioned medium, human T cells) [2] [nM] | TDCC EC50 (CHO expressed, purified protein; method of Example 2, DMS-153 cells) [2] [nM] | Kd [3] [nM] | Kd [4] [nM] | Binder | also measured
7 | 0.028 | 0.063 | 2.9 | 4.3 | anti-DLL3 trispecific protein, DLL3 binder 1H012 (protein, part only; not given: CD3 binder and albumin binder, part only) chain, part: EVQLVESGGGLVQPGGSLTLSCVASGSTSSINAMGWYRRAPGKQRELVAGISSDGSKVYVDSVKGRFTISRDNAKNSVYLQMNSLRAEDTAVYYCYYFRTVSGSSMPYWGQGTLVTVSSGGGGSGGGSGGGGSGGGSHHHHHH | 
8 | 0.033 | 0.072 | 3.5 | 4.8 | anti-DLL3 trispecific protein, DLL3 binder 2E05 (protein, part only; not given: CD3 binder and albumin binder, part only) chain, part: EVQLVESGGGLVQPGGSLTLSCVASGSPSSINAYGWYRRAPGKQRELVAGISSDGSKVYSDSVKGRFTISRDNAKNSVYLQMNSLRAEDTAVYYCYYFRTVSGSSMSYWGQGTLVTVSSGGGGSGGGSGGGGSGGGSHHHHHH | 
9 | 0.031 | 0.096 | 4.4 | 5.2 | anti-DLL3 trispecific protein, DLL3 binder 2H02 (protein, part only; not given: anti-CD3 fragment and anti-albumin domain, part only) chain, part: EVQLVESGGGLVQPGGSLTLSCVASGSTSSINAMAWYRRAPGKQRELAAGISSDGSKVYADSVKGRFTISRDNAKNSVYLQMNSLRAEDTAVYYCYYFHTVSGSSMRYWGQGTLVTVSSGGGGSGGGSGGGGSGGGSHHHHHH | 
10 | 0.052 | 0.06 | 8.1 | 8.2 | anti-DLL3 trispecific protein, DLL3 binder 4D09 (protein, part only; not given: anti-CD3 fragment and anti-albumin domain, part only) chain, part: EVQLVESGGGLVQPGGSLTLSCAASGSSVKFLSMAWYRQAPGKKRELVAGISADGSTDYILSVKGRFTISRDNAKNSVYLQMNSLRAEDTAVYYCYAYEWTTRYTYWGQGTLVTVSSGGGGSGGGSGGGGSGGGSHHHHHH | 
11 | 0.052 |  | 4 | 5.7 | anti-DLL3 trispecific protein, DLL3 binder 3C04 (protein, part only; not given: CD3 binder and albumin binder, part only) chain, part: EVQLVESGGGLVQPGGSLTLSCAASGSHVSFLSMAWYRQAPGKKRELVAGISADGPTDYIDSVKGRFTISRDNAKNSVYLQMNSLRAEDTAVYYCYAYRWDTRYTYWGQGTLVTVSSGGGGSGGGSGGGGSGGGSHHHHHH | 
12 | 0.036 |  | 3.9 | 5.7 | anti-DLL3 trispecific protein, DLL3 binder 4H011 (protein, part only; not given: CD3 fragment and albumin sdAb, part only) chain, part: EVQLVESGGGLVQPGGSLTLSCAASGSSVSRLSMAWYRQAPGKKRELVAGISVDGSTDYIDSVKGRFTISRDNAKNSVYLQMNSLRAEDTAVYYCYAYRWTTRLTYWGQGTLVTVSSGGGGSGGGSGGGGSGGGSHHHHHH | 
